# Test results as given in patent US20200277392A1 (Hoffmann-La Roche, published 2020).
# B1: anti-TnC clone 11C7, purified Fab (Fab, V domains shown)
# VH: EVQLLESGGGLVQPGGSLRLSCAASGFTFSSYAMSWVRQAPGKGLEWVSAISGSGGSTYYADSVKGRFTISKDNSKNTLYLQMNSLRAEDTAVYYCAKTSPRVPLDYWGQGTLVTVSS
# VL: SSELTQDPAVSVALGQTVRVTCQGDSLRSYYASWYQQKPGQAPVLVIYGKNNRPSGIPDRFSGSSSGNTASLTITGAQAEDEADYYCNSINSTRNEVFGGGTKLTVL
# B2: 49B4/TnC 11C7 P329GLALA 2 + 2 (ID7215) (bispecific antibody, human IgG1, kappa, L234A L235A)
# heavy: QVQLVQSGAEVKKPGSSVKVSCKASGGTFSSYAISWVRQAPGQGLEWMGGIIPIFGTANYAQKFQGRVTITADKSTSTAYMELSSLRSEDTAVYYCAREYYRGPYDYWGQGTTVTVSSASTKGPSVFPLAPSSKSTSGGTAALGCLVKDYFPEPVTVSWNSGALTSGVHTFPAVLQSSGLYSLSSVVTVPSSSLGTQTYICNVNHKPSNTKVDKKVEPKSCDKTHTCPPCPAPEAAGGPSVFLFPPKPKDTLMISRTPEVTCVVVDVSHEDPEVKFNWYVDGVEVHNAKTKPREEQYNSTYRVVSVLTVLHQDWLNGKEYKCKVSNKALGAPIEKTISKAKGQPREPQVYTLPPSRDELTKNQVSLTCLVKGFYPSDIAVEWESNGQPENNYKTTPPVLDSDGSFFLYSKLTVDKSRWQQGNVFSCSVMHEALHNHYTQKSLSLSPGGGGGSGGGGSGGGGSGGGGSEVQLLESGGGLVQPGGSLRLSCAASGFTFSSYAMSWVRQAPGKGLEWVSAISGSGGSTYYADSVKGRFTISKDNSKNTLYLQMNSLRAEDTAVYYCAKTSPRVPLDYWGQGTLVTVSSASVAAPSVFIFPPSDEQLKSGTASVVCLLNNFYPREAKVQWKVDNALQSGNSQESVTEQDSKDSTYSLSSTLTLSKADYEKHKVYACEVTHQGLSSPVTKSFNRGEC
# light 1: DIQMTQSPSTLSASVGDRVTITCRASQSISSWLAWYQQKPGKAPKLLIYDASSLESGVPSRFSGSGSGTEFTLTISSLQPDDFATYYCQQYSSQPYTFGQGTKVEIKRTVAAPSVFIFPPSDEQLKSGTASVVCLLNNFYPREAKVQWKVDNALQSGNSQESVTEQDSKDSTYSLSSTLTLSKADYEKHKVYACEVTHQGLSSPVTKSFNRGEC
# light 2: SSELTQDPAVSVALGQTVRVTCQGDSLRSYYASWYQQKPGQAPVLVIYGKNNRPSGIPDRFSGSSSGNTASLTITGAQAEDEADYYCNSINSTRNEVFGGGTKLTVLSSASTKGPSVFPLAPSSKSTSGGTAALGCLVKDYFPEPVTVSWNSGALTSGVHTFPAVLQSSGLYSLSSVVTVPSSSLGTQTYICNVNHKPSNTKVDKKVEPKSCD
# notes: huIgG1 P329G LALA; 49B4 VHCH1-Fc-(G4S)4-11C7 VHCL heavy chain, 49B4 VLCL light chain, 11C7 VLCH1 crossed light chain; also called 2 + 2 (49B4/11C7); 49B4/11C7 2 + 2
# B3: parental bivalent anti-TnC antibody clone18D4 (antibody, V domains shown)
# VH: QVQLVQSGAEVKKPGSSVKVSCKASGGTFSSYAISWVRQAPGQGLEWMGGIIPIFGTANYAQKFQGRVTITADKSTSTAYMELSSLRSEDTAVYYCAKGNFYGGLDYWGQGTTVTVSS
# VL: DIQMTQSPSTLSASVGDRVTITCRASQSISSWLAWYQQKPGKAPKLLIYDASSLESGVPSRFSGSGSGTEFTLTISSLQPDDFATYYCQQNKKFPSGTFGQGTKVEIK
# notes: Human IgG1; also called αTnC (18D4); anti-TnC 18D4 IgG
# Legend:
# GST TnC hu fn5 B-C fn6 B = molecular target: T1, GST TnC hu fn5 B-C fn6 B (human, biotinylated at the C-terminal Avi-tag); assay: SPR ProteOn XPR36, biotinylated antigen captured on NLC chip, purified Fab as analyte, 1:1 Langmuir
# T1 chain: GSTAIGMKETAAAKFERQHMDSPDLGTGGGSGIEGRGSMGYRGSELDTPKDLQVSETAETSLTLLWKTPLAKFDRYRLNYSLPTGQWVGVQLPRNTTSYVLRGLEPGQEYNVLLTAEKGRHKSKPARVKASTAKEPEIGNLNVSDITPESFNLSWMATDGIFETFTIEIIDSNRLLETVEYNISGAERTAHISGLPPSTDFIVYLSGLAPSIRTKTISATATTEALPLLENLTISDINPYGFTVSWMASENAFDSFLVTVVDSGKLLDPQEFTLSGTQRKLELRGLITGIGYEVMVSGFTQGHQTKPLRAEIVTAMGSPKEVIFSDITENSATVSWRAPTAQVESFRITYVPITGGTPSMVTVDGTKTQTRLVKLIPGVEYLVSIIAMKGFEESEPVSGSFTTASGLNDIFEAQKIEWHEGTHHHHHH
# Description: (§1) Immobilization of antigens (ligand): Recombinant antigens were diluted with PBST (10 mM phosphate, 150 mM sodium chloride pH 7.4, 0.005% Tween 20) to 10 μg/ml, then injected at 30 μl/minute in vertical orientation. Injection of analytes: For ‘one-shot kinetics’ measurements, injection direction was changed to horizontal orientation, two-fold dilution series of purified Fab were injected simultaneously along separate channels 1-5, with association times of 200 s, and dissociation times of 240 s, respectively. Buffer (PBST) was injected along the sixth channel to provide an “in-line” blank for referencing. Association rate constants (kₒₙ) and dissociation rate constants (koff) were calculated using a simple one-to-one Langmuir binding model in ProteOn Manager v3.1 software by simultaneously fitting the association and dissociation sensorgrams. The equilibrium dissociation constant (KD) was calculated as the ratio koff/kₒₙ.
# [1] = molecular target: T2, GST huTnC fn5 A1234 BC fn6 B (human, UniProt P24821 984-1798, biotinylated at the C-terminal Avi-tag); assay: as above
# T2 construct: also called Human GST-fused TnC fn5 A1234 BC fn6
# T2 sequence: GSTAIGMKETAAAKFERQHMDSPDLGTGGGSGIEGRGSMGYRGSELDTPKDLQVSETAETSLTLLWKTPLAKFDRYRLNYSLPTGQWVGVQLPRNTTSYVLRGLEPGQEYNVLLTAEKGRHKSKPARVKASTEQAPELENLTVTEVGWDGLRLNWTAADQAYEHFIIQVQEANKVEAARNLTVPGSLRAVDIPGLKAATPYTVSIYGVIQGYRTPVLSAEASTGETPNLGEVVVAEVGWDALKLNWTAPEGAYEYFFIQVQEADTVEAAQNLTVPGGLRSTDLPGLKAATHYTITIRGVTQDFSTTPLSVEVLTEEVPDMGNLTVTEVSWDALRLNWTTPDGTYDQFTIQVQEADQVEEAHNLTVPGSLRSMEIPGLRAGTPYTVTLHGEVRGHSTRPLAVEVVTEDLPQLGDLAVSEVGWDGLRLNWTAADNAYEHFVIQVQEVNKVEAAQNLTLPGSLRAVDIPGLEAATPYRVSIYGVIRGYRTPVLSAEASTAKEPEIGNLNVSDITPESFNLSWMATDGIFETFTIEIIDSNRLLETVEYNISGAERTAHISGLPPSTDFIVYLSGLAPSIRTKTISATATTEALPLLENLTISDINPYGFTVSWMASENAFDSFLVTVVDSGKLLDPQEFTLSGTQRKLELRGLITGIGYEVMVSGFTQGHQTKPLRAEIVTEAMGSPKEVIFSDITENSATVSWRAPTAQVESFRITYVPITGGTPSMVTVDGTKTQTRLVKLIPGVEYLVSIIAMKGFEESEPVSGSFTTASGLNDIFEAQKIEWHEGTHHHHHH
# Description: as §1
# [2] = molecular target: T3, GST huTnC fn5 mu A124 BC hu fn6 B (human fn5 and fn6, murine A124 BC); assay: as above
# T3 chain: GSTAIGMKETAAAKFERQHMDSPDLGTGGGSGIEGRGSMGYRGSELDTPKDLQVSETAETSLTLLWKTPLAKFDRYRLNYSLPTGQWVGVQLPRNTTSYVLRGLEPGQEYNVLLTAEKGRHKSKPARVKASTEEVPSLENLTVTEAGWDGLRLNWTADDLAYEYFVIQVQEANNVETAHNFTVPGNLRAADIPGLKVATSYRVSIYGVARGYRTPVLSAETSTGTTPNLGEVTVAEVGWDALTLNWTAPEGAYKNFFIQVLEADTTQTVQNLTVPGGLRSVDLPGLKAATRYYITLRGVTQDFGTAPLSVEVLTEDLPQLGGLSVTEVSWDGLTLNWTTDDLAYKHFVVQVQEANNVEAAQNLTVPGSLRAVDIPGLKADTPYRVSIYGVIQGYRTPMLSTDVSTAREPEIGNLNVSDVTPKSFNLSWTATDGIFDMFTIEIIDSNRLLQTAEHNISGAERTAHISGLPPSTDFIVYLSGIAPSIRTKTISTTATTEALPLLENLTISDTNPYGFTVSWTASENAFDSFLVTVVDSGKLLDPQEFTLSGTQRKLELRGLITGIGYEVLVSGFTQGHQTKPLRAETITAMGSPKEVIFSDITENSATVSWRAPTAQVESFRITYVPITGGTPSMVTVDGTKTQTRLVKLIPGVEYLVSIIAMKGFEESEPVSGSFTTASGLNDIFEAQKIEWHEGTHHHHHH
# Description: as §1
# [3] = molecular target: T4, human TnC with C-terminal Avi- and His-tags (human, UniProt P24821 984-1798, biotinylated at the C-terminal Avi-tag); assay: SPR Biacore T200, biotinylated TnC on SA chip, bispecific as analyte, 1:1 fit, apparent KD (bivalent binding)
# T4 construct: also called huTnC; biotinylated human TnC
# T4 sequence: T2 sequence
# Description: The capacity of the bispecific constructs to bind human, murine and cynomolgus TnC was analysed by surface plasmon resonance (SPR). All SPR experiments were performed on a Biacore T200 at 25° C. with HBS-EP as running buffer (0.01 M HEPES pH 7.4, 0.15 M NaCl, 3 mM EDTA, 0.005% Surfactant P20, Biacore, Freiburg/Germany).
# Biotinylated human, murine or cynomolgus TnC molecules were immobilised on a SA chip to reach an immobilization level of 10 resonance units (RU).
# Following immobilisation, the bispecific molecules or control molecules were immediately passed over the chip surface at concentrations ranging from 0.05-50 nM, at a flow rate of 30 μL/minute for 120 seconds and a dissociation phase of 180 seconds. The surface was regenerated using 10 mM glycine pH2.1. Bulk refractive index differences were corrected for by subtracting the response obtained in a reference flow cell, where no TnC was immobilized. Affinity/Avidity was determined under these experimental conditions using the Langmuir 1:1 curve fitting. For bivalent binding the same 1:1 fitting was used leading to an apparent KD value.
# [4] = molecular target: T5, human OX40 Fc(kih), monomeric Fc-linked human OX40 antigen ECD (human, UniProt P0DOX5 223-449 = IgG part); assay: SPR (Biacore T200, 25 °C): bispecific held on immobilised human TnC; human OX40 Fc(kih) at 250 nM injected for 90 s as analyte 2
# T5 construct: Heterodimer of one OX40 ECD (aa 29-214)-AcTEV-Fc knob-Avi chain and one Fc hole chain; Biotinylated at the Avi tag for phage selection and ELISA; also called recombinant OX40 Fc (kih) receptor; biotinylated human OX40
# Description: All SPR experiments were performed on a Biacore T200 at 25° C. with HBS-EP as running buffer (0.01 M HEPES pH 7.4, 0.15 M NaCl, 3 mM EDTA, 0.005% Surfactant P20, Biacore, Freiburg/Germany).
# Biotinylated human TnC was directly coupled to a flow cell of a streptavidin (SA) sensor chip. Immobilization levels up to 1000 resonance units (RU) were used.
# Bulk refractive index differences were corrected for by subtracting the response obtained in a reference flow cell, where no protein was immobilized.
# human OX40 on cells [5] = molecular target: T6, human OX40 on cells (human, UniProt P43489 29-277); assay: flow cytometry on OX40+ cells (activated human PBMC)
# T6 construct: also called CD134; OX40+ Cells
# T6 sequence: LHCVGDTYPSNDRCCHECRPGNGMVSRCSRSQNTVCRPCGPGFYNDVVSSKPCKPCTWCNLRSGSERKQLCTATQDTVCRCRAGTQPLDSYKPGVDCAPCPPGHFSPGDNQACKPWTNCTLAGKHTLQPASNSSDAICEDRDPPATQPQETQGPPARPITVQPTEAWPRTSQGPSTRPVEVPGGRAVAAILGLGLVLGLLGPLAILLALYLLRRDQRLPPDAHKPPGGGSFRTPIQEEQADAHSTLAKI
# Description: (§2) For labeling, cells were harvested, washed with pre-warmed (37° C.) DPBS and adjusted to a cell density of 1×10⁷ cells/mL in DPBS. eFluor670 cell proliferation dye (eBioscience, Cat.-No. 65-0840-85) was added to the suspension of naïve human PBMC at a final concentration of […] and a final cell density of 0.5×10⁷ cells/mL in DPBS. Cells were then incubated for 10 min at room temperature in the dark. To stop the labeling reaction, 4 mL heat inactivated FBS was added and cells were washed three times with T cell medium. A 2:1 mixture of 1×10⁵ resting eFluor670 labeled human PBMC and 0.5×10⁵ unlabeled activated human PBMC were then added to each well of round-bottomed suspension cell 96-well plates (Greiner bio-one, cellstar, Cat. No. 650185).
# (§3) Cells were stained for 120 minutes at 4° C. in the dark in 50 μL/well 4° C. FACS buffer containing different amounts of the indicated antigen binding molecules. After three washes with 4° C. FACS buffer, cells were stained for 45 minutes at 4° C. in the dark in 25 μL/well 4° C. FACS buffer containing a mixture of fluorescently labeled anti-human CD4 (clone RPA-T4, mouse IgG1 k, BioLegend, Cat.-No. 300532), anti-human CD8 (clone RPa-T8, mouse IgGlk, BioLegend, Cat.-No. 3010441) and Fluorescein isothiocyanate (FITC)-conjugated AffiniPure anti-human IgG Fcγ-fragment-specific goat IgG F(ab′)₂ fragment (Jackson ImmunoResearch, Cat.-No. 109-096-098).
# Cells were then resuspended in […] FACS-buffer containing 0.2 μg/mL DAPI (Santa Cruz Biotec, Cat. No. Sc-3598) and acquired the same day using 5-laser LSR-Fortessa (BD Bioscience with DIVA software).
# human TnC on cells [6] = molecular target: T7, human TnC on cells (human, UniProt P24821 23-2201); assay: flow cytometry on U87-MG cells
# T7 construct: Endogenous on U87-MG cells (low or intermediate level) and stably transfected in CT26 cells (CT26huTnC, high level); also called cell surface human TnC; TnC on U87-MG cells
# T7 sequence (P24821 23-2201 limits assumed): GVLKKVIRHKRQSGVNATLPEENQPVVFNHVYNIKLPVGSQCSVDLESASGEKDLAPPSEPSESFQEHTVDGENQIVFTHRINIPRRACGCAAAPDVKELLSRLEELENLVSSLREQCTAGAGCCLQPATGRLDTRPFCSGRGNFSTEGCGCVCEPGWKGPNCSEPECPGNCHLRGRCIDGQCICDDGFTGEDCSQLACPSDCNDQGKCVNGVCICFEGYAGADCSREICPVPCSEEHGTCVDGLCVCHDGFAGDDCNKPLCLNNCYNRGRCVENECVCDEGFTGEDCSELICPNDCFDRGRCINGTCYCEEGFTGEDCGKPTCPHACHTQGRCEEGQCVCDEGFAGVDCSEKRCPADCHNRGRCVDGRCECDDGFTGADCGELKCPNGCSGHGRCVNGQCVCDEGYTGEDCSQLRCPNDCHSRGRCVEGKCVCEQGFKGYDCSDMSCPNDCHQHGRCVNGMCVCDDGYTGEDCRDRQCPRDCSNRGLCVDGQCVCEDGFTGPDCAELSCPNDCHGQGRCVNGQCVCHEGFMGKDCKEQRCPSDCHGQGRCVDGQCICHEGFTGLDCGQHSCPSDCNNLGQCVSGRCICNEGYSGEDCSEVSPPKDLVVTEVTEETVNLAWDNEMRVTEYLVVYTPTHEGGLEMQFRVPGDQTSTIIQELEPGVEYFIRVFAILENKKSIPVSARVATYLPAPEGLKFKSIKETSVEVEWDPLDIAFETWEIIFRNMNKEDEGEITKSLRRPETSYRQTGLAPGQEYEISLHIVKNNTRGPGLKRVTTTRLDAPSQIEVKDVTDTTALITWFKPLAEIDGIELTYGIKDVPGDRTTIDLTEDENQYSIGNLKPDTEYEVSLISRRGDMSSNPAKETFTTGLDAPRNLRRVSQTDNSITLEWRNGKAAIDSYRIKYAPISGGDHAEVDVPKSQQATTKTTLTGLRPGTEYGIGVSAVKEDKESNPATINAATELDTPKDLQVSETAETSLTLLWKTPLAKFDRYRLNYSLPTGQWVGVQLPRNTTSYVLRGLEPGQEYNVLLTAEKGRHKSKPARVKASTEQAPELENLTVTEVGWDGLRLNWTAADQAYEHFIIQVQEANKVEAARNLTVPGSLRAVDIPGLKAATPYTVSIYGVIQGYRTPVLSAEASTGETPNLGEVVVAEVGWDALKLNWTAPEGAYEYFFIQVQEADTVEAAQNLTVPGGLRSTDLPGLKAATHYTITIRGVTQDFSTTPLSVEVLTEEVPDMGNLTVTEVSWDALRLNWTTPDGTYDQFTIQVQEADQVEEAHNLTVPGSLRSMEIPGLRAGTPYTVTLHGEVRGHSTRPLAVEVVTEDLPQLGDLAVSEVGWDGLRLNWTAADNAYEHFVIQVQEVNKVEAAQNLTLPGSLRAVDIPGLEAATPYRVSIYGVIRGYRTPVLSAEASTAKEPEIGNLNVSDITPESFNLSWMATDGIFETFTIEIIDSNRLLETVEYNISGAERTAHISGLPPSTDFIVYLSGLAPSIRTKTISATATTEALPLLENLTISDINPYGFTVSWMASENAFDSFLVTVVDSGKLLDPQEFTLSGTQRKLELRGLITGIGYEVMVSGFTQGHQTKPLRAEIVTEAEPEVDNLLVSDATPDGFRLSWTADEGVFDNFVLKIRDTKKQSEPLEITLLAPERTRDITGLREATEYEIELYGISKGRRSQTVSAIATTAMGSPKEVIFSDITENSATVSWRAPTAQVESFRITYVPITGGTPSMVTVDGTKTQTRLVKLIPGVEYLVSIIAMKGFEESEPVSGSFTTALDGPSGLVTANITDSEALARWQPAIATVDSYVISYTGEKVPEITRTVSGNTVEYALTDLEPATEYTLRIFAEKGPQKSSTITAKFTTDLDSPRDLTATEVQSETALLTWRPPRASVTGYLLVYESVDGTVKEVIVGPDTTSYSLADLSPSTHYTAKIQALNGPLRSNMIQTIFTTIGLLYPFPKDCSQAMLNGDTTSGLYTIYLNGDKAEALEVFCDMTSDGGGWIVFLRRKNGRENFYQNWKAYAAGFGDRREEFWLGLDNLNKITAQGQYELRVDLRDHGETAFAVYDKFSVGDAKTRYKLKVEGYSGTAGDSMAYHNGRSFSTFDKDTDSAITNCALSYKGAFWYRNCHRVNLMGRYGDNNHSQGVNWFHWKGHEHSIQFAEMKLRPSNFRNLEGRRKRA
# Description: Cells were then stained for 60 to 120 minutes at 4° C. in the dark in 50 4/well 4° C.
# For discrimination of live and dead cells two methods were used. […] Alternatively, cells were washed once with DPBS and were incubated for 15 minutes at dark/4° C. at a cell concentration of 1×10⁶ cell/mL in DPBS containing Zombie Aqua™ Viability Dye [1:800 dilution]. Cells were subsequently washed once with DPBS to remove excess dye before primary antigen binding molecules were added to the cells and the cells were incubated as described above.
# human TnC on cells [7] = molecular target: T7, human TnC on cells; assay: flow cytometry on CT26huTnC cells
# human OX40 on cells [8] = molecular target: T6, human OX40 on cells; assay: flow cytometry on activated human PBMC, gated on CD4+ T cells; FITC anti-human IgG secondary; MFI baseline corrected
# Description: as §2
# as §3, with “109-096-098). […]” for “109-096-098).”
binder,measurement,setting,value
B1,Kd,GST TnC hu fn5 B-C fn6 B,1 nM
same,Kd,[1],2.3 nM
same,Kd,[2],1.9 nM
B2,Kd,[3],5.85 nM
same,binding result,[4],binds
same,EC50,human OX40 on cells [5],4.22 nM
B3,EC50,human TnC on cells [6],8.21 nM
same,EC50,human TnC on cells [7],2.69 nM
same,binding result,human OX40 on cells [8],no binding (tested: 100 nM)
